# B1: CAMK2A (parent)
# chain: CIQQILEAVLHCHQMGVVHRDLKP
# Variants of: B1
# Test: protein stability index of a GFP-peptide fusion (GPS, HEK-293T) (PSI 1-6); higher = more stable
# Conditions: c terminus: a fixed tail appended
# 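Also: lentivirally expressed fusions sorted by FACS into six bins by GFP to DsRed ratio, PSI derived from sequencing read proportions per bin multiplied by bin number.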
row,Variant,protein stability index
1,Q3T,3.42
2,Q3P,3.19
3,Q3Y,3.67
4,Q3D,3.17
5,Q3V,3.85
6,Q3H,3.11
7,Q3K,2.77
8,Q3G,3.91
9,Q3I,2.81
10,Q3A,3.85
11,Q3C,3.04
12,Q3F,2.24
13,G16R,1.6
14,G16E,3.1
15,G16P,2.69
16,G16H,2.16
17,G16C,2.97
18,G16Q,3.06
19,G16D,2.41
20,G16W,1.79
21,G16I,2.24
22,G16K,1.11
23,G16V,1.3
24,G16N,3.04

row,Variant,protein stability index
1,G16M,3.07
2,G16Y,1.91
3,A8W,4.4
4,A8G,3.6
5,A8R,1.5
6,A8V,2.26
7,A8D,2.04
8,A8H,2.39
9,A8P,2.9
10,A8C,2.57
11,A8K,2.86
12,A8F,3.18
13,A8Y,2.54
14,A8Q,2.42
15,A8T,3.67
16,A8M,3.63
17,V9R,2.01
18,V9W,2.45
19,V9M,2.92
20,V9Q,1.96
21,V9T,2.86
22,V9D,1.83
23,V9I,2.04
24,V9C,2.82

row,Variant,protein stability index
1,V9K,1.72
2,V9P,1.26
3,V9H,2.35
4,V9Y,3.08
5,V9N,1.96
6,V9A,1.86
7,V9E,1.87
8,V9L,3.23
9,V9G,2
10,I5F,2.79
11,I5K,2.16
12,I5N,1.71
13,I5C,3.12
14,I5E,2.3
15,I5M,4.53
16,I5D,2.65
17,I5T,2.89
18,I5W,2.01
19,I5P,1.81
20,I5Q,1.73
21,I5H,2.44
22,I5R,2.2
23,I5A,4.67
24,I5S,1.69

row,Variant,protein stability index
1,Q14D,3.09
2,Q14H,2.38
3,Q14T,3.88
4,Q14W,2.76
5,Q14E,3.49
6,Q14C,2.78
7,Q14F,2.94
8,Q14R,1.94
9,Q14L,3.6
10,Q14P,2
11,Q14N,1.28
12,Q14A,2.29
13,Q14S,2.83
14,Q14K,3.21
15,Q14I,2.86
16,Q14Y,3.42
17,I2E,1.78
18,I2G,1.99
19,I2N,1.32
20,I2V,2.74
21,I2Q,1.72
22,I2T,1.79
23,I2K,1.22
24,I2R,2.21

row,Variant,protein stability index
1,I2D,2.09
2,I2S,1.56
3,I2W,1.35
4,I2P,2.07
5,I2A,2.45
6,I2H,1.68
7,I2C,3.15
8,H11M,4.07
9,H11P,1.69
10,H11I,3.32
11,H11E,2.91
12,H11T,2.39
13,H11V,1.53
14,H11D,3.55
15,H11Q,1.9
16,H11S,2.86
17,H11K,1.72
18,H11F,3.5
19,H11C,2.39
20,H11N,2.4
21,V17A,1.8
22,V17N,3.21
23,V17L,2.42
24,V17Q,2.79

row,Variant,protein stability index
1,V17T,3.89
2,V17R,3.99
3,V17P,2.65
4,V17Y,3.53
5,V17E,2.01
6,V17C,2.21
7,V17F,1.59
8,V17I,1.95
9,V17D,2.57
10,V17G,3.75
11,V17H,1.99
12,V17M,2.44
13,L6P,1.83
14,L6F,1.07
15,L6Y,2.13
16,L6S,1.71
17,L6H,1.77
18,L6I,2.64
19,L6A,1.4
20,L6C,1.84
21,L6T,1.69
22,L6Q,2.09
23,L6N,1.98
24,L6D,2.93

row,Variant,protein stability index
1,L6R,1.97
2,L6E,2.44
3,L6K,2.4
4,L6M,2.75
5,L6W,1.87
6,L6G,2.14
7,L6V,2.88
8,L10W,4.24
9,L10S,2.21
10,L10R,2.37
11,L10F,2.72
12,L10G,1.67
13,L10P,1.66
14,L10H,2.19
15,L10E,1.53
16,L10M,3.74
17,L10T,2.11
18,L10K,1.9
19,L10N,2.05
20,L10V,3.33
21,L10D,1.95
22,L10A,1.35
23,L10Q,2.19
24,H19T,3.67

row,Variant,protein stability index
1,H19E,3.29
2,H19L,1.9
3,H19G,3.33
4,H19M,2.59
5,H19F,3.5
6,H19Y,2.79
7,H19C,1.84
8,H19K,2.34
9,H19W,3.38
10,H19R,2.92
11,H19I,2.01
12,H19S,2.53
13,H19D,2.72
14,V18N,2.84
15,V18Y,2.35
16,V18S,1.92
17,V18P,2.35
18,V18A,2.83
19,V18G,2.31
20,V18F,1.78
21,V18D,2.78
22,V18I,2
23,V18K,2.97
24,V18R,1.68

row,Variant,protein stability index
1,V18E,1.63
2,V18C,2.28
3,V18T,2.33
4,V18H,3.82
5,V18Q,3.46
6,L22Y,1.95
7,L22R,1.03
8,L22N,2.03
9,L22Q,1.62
10,L22W,2.28
11,L22P,1.82
12,L22I,3.05
13,L22A,2.87
14,L22E,2.96
15,L22H,1.99
16,L22F,2.66
17,L22K,2.53
18,L22S,2.34
19,L22T,3.01
20,L22G,2.03
21,L22C,3.02
22,C1V,2.22
23,C1K,2.82
24,C1W,1.78

row,Variant,protein stability index
1,C1R,2.22
2,C1I,3.46
3,C1L,3.19
4,C1Q,1.13
5,C1T,2.82
6,C1Y,2.37
7,C1M,4.15
8,E7G,4.42
9,E7S,2.57
10,E7V,1.8
11,E7F,2.42
12,E7D,3.99
13,E7W,2.78
14,E7Q,2.55
15,E7T,1.99
16,E7I,2.74
17,E7Y,4.43
18,E7K,2.25
19,E7R,2.81
20,E7M,4.26
21,E7C,3.72
22,E7A,2.02
23,H13K,1.73
24,H13Q,1.22

row,Variant,protein stability index
1,H13E,2.49
2,H13D,2.57
3,H13G,3.66
4,H13I,2.85
5,H13W,1.27
6,H13F,1.28
7,H13R,1.55
8,H13C,2.35
9,H13M,2.07
10,H13N,2.28
11,H13Y,3.92
12,R20G,2.37
13,R20E,3.3
14,R20D,2.72
15,R20P,1.77
16,R20I,1.85
17,R20N,1.52
18,R20Y,2.17
19,R20F,1.97
20,R20K,2.66
21,R20W,3.1
22,R20T,3.37
23,R20C,2.37
24,R20L,2.54

row,Variant,protein stability index
1,M15Q,1.22
2,M15F,1.84
3,M15P,1.81
4,M15Y,2.85
5,M15W,3.1
6,M15H,2.24
7,M15C,2.85
8,M15S,2.6
9,M15V,2.57
10,M15I,2.31
11,M15N,1.52
12,M15E,2.68
13,M15K,2.42
14,M15G,2.05
15,M15D,1.8
16,D21L,3.01
17,D21K,4.29
18,D21G,2.28
19,D21F,2.97
20,D21H,2.62
21,D21I,3.1
22,D21A,4.17
23,D21R,2.75
24,D21N,4.66

row,Variant,protein stability index
1,D21W,3.37
2,D21M,2.17
3,D21Q,2.22
4,D21C,2.86
5,D21T,2.36
6,D21S,1.66
7,D21P,2.07
8,K23D,3.12
9,K23L,2.73
10,K23I,2.2
11,K23H,3.03
12,K23R,3.33
13,K23S,1.65
14,K23V,1.76
15,K23N,3.36
16,K23E,2.61
17,K23P,2.63
18,K23C,3.94
19,C12P,1.53
20,C12H,2.98
21,C12W,2.65
22,C12T,2.74
23,C12R,4.86
24,C12E,2.58

row,Variant,protein stability index
1,C12N,3.26
2,C12I,2.66
3,C12M,2.79
4,C12K,1.82
5,C12A,2.34
6,C12Y,3.8
7,C12V,2.82
8,C12L,3.33
9,C12G,1.18
10,C12D,1.54
11,Q4A,1.96
12,Q4N,2.68
13,Q4R,2.94
14,Q4H,2.13
15,Q4G,5.02
16,Q4T,2.74
17,Q4L,2.55
18,Q4K,1.93
19,Q4Y,2.07
20,Q4D,2.04
21,Q4P,1.69
22,Q4M,1.92

# From the supplement of paper PMC10567573
